Experimental data as given in IntAct's records for PubMed 31515488.

B1: KAT8 regulatory NSL complex subunit 1 (Homo sapiens), Q7Z3B3 (parent)
chain: MAAMAPALTDAAAEAHHIRFKLAPPSSTLSPGSAENNGNANILIAANGTKRKAIAAEDPSLDFRNNPTKEDLGKLQPLVASYLCSDVTSVPSKESLKLQGVFSKQTVLKSHPLLSQSYELRAELLGRQPVLEFSLENLRTMNTSGQTALPQAPVNGLAKKLTKSSTHSDHDNSTSLNGGKRALTSSALHGGEMGGSESGDLKGGMTNCTLPHRSLDVEHTTLYSNNSTANKSSVNSMEQPALQGSSRLSPGTDSSSNLGGVKLEGKKSPLSSILFSALDSDTRITALLRRQADIESRARRLQKRLQVVQAKQVERHIQHQLGGFLEKTLSKLPNLESLRPRSQLMLTRKAEAALRKAASETTTSEGLSNFLKSNSISEELERFTASGIANLRCSEQAFDSDVTDSSSGGESDIEEEELTRADPEQRHVPLRRRSEWKWAADRAAIVSRWNWLQAHVSDLEYRIRQQTDIYKQIRANKGLIVLGEVPPPEHTTDLFLPLSSEVKTDHGTDKLIESVSQPLENHGAPIIGHISESLSTKSCGALRPVNGVINTLQPVLADHIPGDSSDAEEQLHKKQRLNLVSSSSDGTCVAARTRPVLSCKKRRLVRPNSIVPLSKKVHRNSTIRPGCDVNPSCALCGSGSINTMPPEIHYEAPLLERLSQLDSCVHPVLAFPDDVPTSLHFQSMLKSQWQNKPFDKIKPPKKLSLKHRAPMPGSLPDSARKDRHKLVSSFLTTAKLSHHQTRPDRTHRQHLDDVGAVPMVERVTAPKAERLLNPPPPVHDPNHSKMRLRDHSSERSEVLKHHTDMSSSSYLAATHHPPHSPLVRQLSTSSDSPAPASSSSQVTASTSQQPVRRRRGESSFDINNIVIPMSVAATTRVEKLQYKEILTPSWREVDLQSLKGSPDEENEEIEDLSDAAFAALHAKCEEMERARWLWTTSVPPQRRGSRSYRSSDGRTTPQLGSANPSTPQPASPDVSSSHSLSEYSHGQSPRSPISPELHSAPLTPVARDTPRHLASEDTRCSTPELGLDEQSVQPWERRTFPLAHSPQAECEDQLDAQERAARCTRRTSGSKTGRETEAAPTSPPIVPLKSRHLVAAATAQRPTHR
B2: Calcium-binding and coiled-coil domain-containing protein 2 (Homo sapiens), Q13137 (parent)
chain: MEETIKDPPTSAVLLDHCHFSQVIFNSVEKFYIPGGDVTCHYTFTQHFIPRRKDWIGIFRVGWKTTREYYTFMWVTLPIDLNNKSAKQQEVQFKAYYLPKDDEYYQFCYVDEDGVVRGASIPFQFRPENEEDILVVTTQGEVEEIEQHNKELCKENQELKDSCISLQKQNSDMQAELQKKQEELETLQSINKKLELKVKEQKDYWETELLQLKEQNQKMSSENEKMGIRVDQLQAQLSTQEKEMEKLVQGDQDKTEQLEQLKKENDHLFLSLTEQRKDQKKLEQTVEQMKQNETTAMKKQQELMDENFDLSKRLSENEIICNALQRQKERLEGENDLLKRENSRLLSYMGLDFNSLPYQVPTSDEGGARQNPGLAYGNPYSGIQESSSPSPLSIKKCPICKADDICDHTLEQQQMQPLCFNCPICDKIFPATEKQIFEDHVFCHSL
partner: B1 chain
B3: Ubl carboxyl-terminal hydrolase 18 (Homo sapiens), Q9UMW8 (parent)
chain: MSKAFGLLRQICQSILAESSQSPADLEEKKEEDSNMKREQPRERPRAWDYPHGLVGLHNIGQTCCLNSLIQVFVMNVDFTRILKRITVPRGADEQRRSVPFQMLLLLEKMQDSRQKAVRPLELAYCLQKCNVPLFVQHDAAQLYLKLWNLIKDQITDVHLVERLQALYTIRVKDSLICVDCAMESSRNSSMLTLPLSLFDVDSKPLKTLEDALHCFFQPRELSSKSKCFCENCGKKTRGKQVLKLTHLPQTLTIHLMRFSIRNSQTRKICHSLYFPQSLDFSQILPMKRESCDAEEQSGGQYELFAVIAHVGMADSGHYCVYIRNAVDGKWFCFNDSNICLVSWEDIQCTYGNPNYHWQETAYLLVYMKMEC
B4: Keratin, type II cytoskeletal 2 epidermal (Homo sapiens), P35908 (parent)
chain: MSCQISCKSRGRGGGGGGFRGFSSGSAVVSGGSRRSTSSFSCLSRHGGGGGGFGGGGFGSRSLVGLGGTKSISISVAGGGGGFGAAGGFGGRGGGFGGGSSFGGGSGFSGGGFGGGGFGGGRFGGFGGPGGVGGLGGPGGFGPGGYPGGIHEVSVNQSLLQPLNVKVDPEIQNVKAQEREQIKTLNNKFASFIDKVRFLEQQNQVLQTKWELLQQMNVGTRPINLEPIFQGYIDSLKRYLDGLTAERTSQNSELNNMQDLVEDYKKKYEDEINKRTAAENDFVTLKKDVDNAYMIKVELQSKVDLLNQEIEFLKVLYDAEISQIHQSVTDTNVILSMDNSRNLDLDSIIAEVKAQYEEIAQRSKEEAEALYHSKYEELQVTVGRHGDSLKEIKIEISELNRVIQRLQGEIAHVKKQCKNVQDAIADAEQRGEHALKDARNKLNDLEEALQQAKEDLARLLRDYQELMNVKLALDVEIATYRKLLEGEECRMSGDLSSNVTVSVTSSTISSNVASKAAFGGSGGRGSSSGGGYSSGSSSYGSGGRQSGSRGGSGGGGSISGGGYGSGGGSGGRYGSGGGSKGGSISGGGYGSGGGKHSSGGGSRGGSSSGGGYGSGGGGSSSVKGSSGEAFGSSVTFSFR
partner: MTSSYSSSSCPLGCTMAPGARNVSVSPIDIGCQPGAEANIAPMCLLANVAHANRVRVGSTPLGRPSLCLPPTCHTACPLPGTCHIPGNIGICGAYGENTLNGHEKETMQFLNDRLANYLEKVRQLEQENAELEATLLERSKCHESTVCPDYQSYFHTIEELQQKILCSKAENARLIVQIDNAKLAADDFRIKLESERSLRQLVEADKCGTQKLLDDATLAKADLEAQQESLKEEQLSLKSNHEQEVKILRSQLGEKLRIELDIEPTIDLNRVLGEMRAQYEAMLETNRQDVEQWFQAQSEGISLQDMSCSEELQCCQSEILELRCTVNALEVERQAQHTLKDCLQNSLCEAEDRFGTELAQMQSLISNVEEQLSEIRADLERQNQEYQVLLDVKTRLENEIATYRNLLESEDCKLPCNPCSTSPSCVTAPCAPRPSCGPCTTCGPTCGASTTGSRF
B5: Homeobox protein VENTX (Homo sapiens), O95231 (parent)
chain: MRLSSSPPRGPQQLSSFGSVDWLSQSSCSGPTHTPRPADFSLGSLPGPGQTSGAREPPQAVSIKEAAGSSNLPAPERTMAGLSKEPNTLRAPRVRTAFTMEQVRTLEGVFQHHQYLSPLERKRLAREMQLSEVQIKTWFQNRRMKHKRQMQDPQLHSPFSGSLHAPPAFYSTSSGLANGLQLLCPWAPLSGPQALMLPPGSFWGLCQVAQEALASAGASCCGQPLASHPPTPGRPSLGPALSTGPRGLCAMPQTGDAF

Variants of: B1
Conditions: with cdr2_human CDR2, Q01850
cdr2_human CDR2, Q01850, sequence (Q01850 whole entry): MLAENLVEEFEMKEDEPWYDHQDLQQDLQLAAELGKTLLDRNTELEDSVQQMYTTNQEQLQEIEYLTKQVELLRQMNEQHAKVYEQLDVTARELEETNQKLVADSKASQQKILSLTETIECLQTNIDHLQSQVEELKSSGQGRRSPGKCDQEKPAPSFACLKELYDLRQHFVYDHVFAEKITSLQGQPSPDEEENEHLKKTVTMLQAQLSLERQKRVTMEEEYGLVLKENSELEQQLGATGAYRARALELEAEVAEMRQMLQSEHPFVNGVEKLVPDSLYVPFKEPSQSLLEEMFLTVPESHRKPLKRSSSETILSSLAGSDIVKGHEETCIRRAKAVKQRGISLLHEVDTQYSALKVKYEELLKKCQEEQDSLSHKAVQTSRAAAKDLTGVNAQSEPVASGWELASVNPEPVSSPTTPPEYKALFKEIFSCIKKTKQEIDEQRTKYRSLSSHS

Row | Variant | effect of a mutation on the interaction
1 | N225D | with no effect

Variants of: B1
Conditions: with traf2_human TRAF2, Q12933
traf2_human TRAF2, Q12933, sequence (Q12933 whole entry): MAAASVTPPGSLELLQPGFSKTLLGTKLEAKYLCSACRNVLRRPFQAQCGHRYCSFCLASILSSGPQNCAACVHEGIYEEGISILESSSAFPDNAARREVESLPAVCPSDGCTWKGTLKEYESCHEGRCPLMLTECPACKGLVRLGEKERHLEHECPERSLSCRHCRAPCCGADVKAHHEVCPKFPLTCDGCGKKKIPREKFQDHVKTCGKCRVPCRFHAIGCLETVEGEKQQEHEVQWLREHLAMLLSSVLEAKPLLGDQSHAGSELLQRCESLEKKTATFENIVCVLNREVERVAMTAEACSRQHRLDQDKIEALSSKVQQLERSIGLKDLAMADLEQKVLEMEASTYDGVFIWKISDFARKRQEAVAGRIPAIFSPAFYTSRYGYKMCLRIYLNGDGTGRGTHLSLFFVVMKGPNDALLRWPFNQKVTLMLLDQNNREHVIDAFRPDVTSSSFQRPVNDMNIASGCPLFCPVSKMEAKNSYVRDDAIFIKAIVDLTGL

Row | Variant | effect of a mutation on the interaction
2 | N225D | with no effect

Variants of: B1
Conditions: with KRT15, P19012
KRT15, P19012, sequence (P19012 whole entry): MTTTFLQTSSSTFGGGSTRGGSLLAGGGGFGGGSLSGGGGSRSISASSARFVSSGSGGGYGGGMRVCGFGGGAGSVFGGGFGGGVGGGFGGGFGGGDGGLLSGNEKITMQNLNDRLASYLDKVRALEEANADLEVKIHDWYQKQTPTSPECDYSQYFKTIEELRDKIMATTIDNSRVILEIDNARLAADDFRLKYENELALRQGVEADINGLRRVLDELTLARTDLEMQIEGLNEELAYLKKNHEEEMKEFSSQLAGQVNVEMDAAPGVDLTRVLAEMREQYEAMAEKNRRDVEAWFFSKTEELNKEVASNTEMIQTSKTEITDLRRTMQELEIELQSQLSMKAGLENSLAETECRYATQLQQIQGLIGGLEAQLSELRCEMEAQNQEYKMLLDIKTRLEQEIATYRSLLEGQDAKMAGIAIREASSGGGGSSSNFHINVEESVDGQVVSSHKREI

Row | Variant | effect of a mutation on the interaction
3 | N225D | with no effect

Variants of: B2
Conditions: with kanl1_human KANSL1, Q7Z3B3

Row | Variant | effect of a mutation on the interaction
4 | P389A | with no effect
5 | T273A | with no effect

Variants of: B3
Conditions: with isg15_human ISG15, P05161
isg15_human ISG15, P05161, sequence (P05161 whole entry): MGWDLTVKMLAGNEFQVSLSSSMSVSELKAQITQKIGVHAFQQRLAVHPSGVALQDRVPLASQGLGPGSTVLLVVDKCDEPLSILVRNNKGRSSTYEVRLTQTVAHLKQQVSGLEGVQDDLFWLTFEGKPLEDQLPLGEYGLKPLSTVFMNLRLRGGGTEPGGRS

Row | Variant | effect of a mutation on the interaction
6 | T169M | with no effect

Variants of: B4
Conditions: with krt38_human KRT38, O76015

Row | Variant | effect of a mutation on the interaction
7 | A517G | with no effect

Variants of: B5
Conditions: with rbpms_human RBPMS

Row | Variant | effect of a mutation on the interaction
8 | A226E | with no effect
9 | M251V | with no effect
10 | L42P | with no effect
